Target: CDK complexes from A. thaliana purified on p13suc1 sepharose beads
Experiment: cell-based or functional assay

- CDK activity measured using histone H1 as substrate, compared to a control sample without FL66; 10 nM FL66 (% of the control): 82
- CDK activity measured using histone H1 as substrate, compared to a control sample without FL66; 100 nM FL66 (% of the control): 74
- CDK activity measured using histone H1 as substrate, compared to a control sample without FL66; 1 uM FL66 (% of the control): 56
- CDK activity measured using histone H1 as substrate, compared to a control sample without FL66; 10 uM FL66 (% of the control): 12
- kinase activity of the CDK fraction bound to p13suc1 beads, FL66 added prior to washing of the beads; 0.1 uM FL66 (% of the control): 81
- kinase activity of the CDK fraction bound to p13suc1 beads, FL66 added prior to washing of the beads; 10 uM FL66 (% of the control): 35
B1: Purified recombinant FL66 protein (E. coli, FL66pET21d), starting at methionine 11 (protein)
chain: MEVSKATAPSPGVRTRAAKTLALKRLNSSAADSALPNDSSCYLQLRSRRLEKPSSLIEPKQPPRVHRSGIKESGSRSRVDSVNSVPVAQSSNEDECFDNFVSVQVSCGENSLGFESRHSTRESTPCNFVEDMEIMVTPGSSTRSMCRATKEYTREQDNVIPTTSEMEEFFAYAEQQQQRLFMEKYNFDIVNDIPLSGRYEWVQVKP
